Reference: the supplement of paper PMC9112550, “Optimization of the antimicrobial peptide Bac7 by deep mutational scanning” (BMC Biology, 2022)

The sequences below were run on Escherichia coli TOP10 (assay: shrunken log2 fold change of peptide-encoding DNA abundance (4.5 h post-induction vs induction); higher = less antimicrobial activity (less host growth inhibition)). Conditions: time post-induction: 4.5 h; library: site-saturation at positions 5, 18, 19, 20.
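Also: peptides expressed intracellularly from a pBAD plasmid library in pooled LB shake-flask culture, induced with 0.3% L-arabinose, DNA abundance read by NGS, three biological replicates, DESeq2 with apeglm shrinkage.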

| Sequence | shrunken log2 fold change |
| --- | --- |
| RRIRRRPPRLPRPRPRPSDAPRP | -0.0697 |
| RRIRCRPPRLPRPRPRPLVLPRP | -0.378 |
| RRIRWRPPRLPRPRPRPEYPPRP | 0.208 |
| RRIRHRPPRLPRPRPRPEETPRP | -0.00605 |
| RRIRWRPPRLPRPRPRPGIVPRP | 0.585 |
| RRIRIRPPRLPRPRPRPRKTPRP | 0.13 |
| RRIRIRPPRLPRPRPRPAMSPRP | -0.0178 |
| RRIRKRPPRLPRPRPRPYAIPRP | 0.0303 |
| RRIRRRPPRLPRPRPRPGYWPRP | 0.535 |
| RRIRFRPPRLPRPRPRPMDRPRP | 0.0616 |
| RRIRARPPRLPRPRPRPNKRPRP | 0.214 |
| RRIRFRPPRLPRPRPRPYVGPRP | -0.108 |
| RRIRHRPPRLPRPRPRPMPYPRP | -0.00164 |
| RRIRARPPRLPRPRPRPWFVPRP | -0.0746 |
| RRIRMRPPRLPRPRPRPGHWPRP | 0.263 |
| RRIRHRPPRLPRPRPRPMCRPRP | -0.0487 |
| RRIRPRPPRLPRPRPRPAVSPRP | 0.171 |
| RRIRHRPPRLPRPRPRPYGTPRP | -1.41 |
| RRIRARPPRLPRPRPRPKKCPRP | 0.0283 |
| RRIRQRPPRLPRPRPRPTCCPRP | -0.00785 |
| RRIRCRPPRLPRPRPRPECSPRP | 0.231 |
| RRIRNRPPRLPRPRPRPETGPRP | 2.57 |
| RRIRWRPPRLPRPRPRPKGMPRP | -0.159 |
| RRIRERPPRLPRPRPRPLVTPRP | 0.503 |
| RRIRLRPPRLPRPRPRPRLCPRP | 0.35 |

| Sequence | shrunken log2 fold change |
| --- | --- |
| RRIRYRPPRLPRPRPRPSMYPRP | -0.418 |
| RRIRLRPPRLPRPRPRPDPEPRP | 0.0928 |
| RRIRDRPPRLPRPRPRPQCIPRP | -0.0275 |
| RRIRKRPPRLPRPRPRPRCNPRP | 0.196 |
| RRIRNRPPRLPRPRPRPIIFPRP | -1.03 |
| RRIRVRPPRLPRPRPRPGFLPRP | 0.101 |
| RRIRTRPPRLPRPRPRPVYIPRP | -0.6 |
| RRIRHRPPRLPRPRPRPDGRPRP | 0.172 |
| RRIRPRPPRLPRPRPRPAWMPRP | 0.372 |
| RRIRNRPPRLPRPRPRPYFPPRP | -0.143 |
| RRIRNRPPRLPRPRPRPTCLPRP | -0.0993 |
| RRIRDRPPRLPRPRPRPRFGPRP | 0.206 |
| RRIRHRPPRLPRPRPRPIQHPRP | -0.237 |
| RRIRKRPPRLPRPRPRPFQYPRP | -0.284 |
| RRIRFRPPRLPRPRPRPYEKPRP | -0.075 |
| RRIRERPPRLPRPRPRPFQKPRP | -0.178 |
| RRIRERPPRLPRPRPRPMKFPRP | -0.0657 |
| RRIRLRPPRLPRPRPRPSACPRP | -0.484 |
| RRIRVRPPRLPRPRPRPFYTPRP | 0.508 |
| RRIRMRPPRLPRPRPRPFVQPRP | -0.216 |
| RRIRQRPPRLPRPRPRPCQEPRP | -0.015 |
| RRIRMRPPRLPRPRPRPPDKPRP | 1.03 |
| RRIRNRPPRLPRPRPRPMLLPRP | -0.0366 |
| RRIRRRPPRLPRPRPRPCHIPRP | -0.309 |
| RRIRFRPPRLPRPRPRPYLDPRP | -0.26 |

| Sequence | shrunken log2 fold change |
| --- | --- |
| RRIRCRPPRLPRPRPRPSQRPRP | -0.54 |
| RRIRDRPPRLPRPRPRPSPLPRP | -0.126 |
| RRIRARPPRLPRPRPRPVQAPRP | 0.312 |
| RRIRRRPPRLPRPRPRPIDHPRP | -0.12 |
| RRIRYRPPRLPRPRPRPGFYPRP | -0.406 |
| RRIRMRPPRLPRPRPRPQRMPRP | 0.583 |
| RRIRDRPPRLPRPRPRPNLYPRP | -0.0872 |
| RRIRFRPPRLPRPRPRPEHGPRP | 0.00151 |
| RRIRIRPPRLPRPRPRPWYRPRP | -0.678 |
| RRIRKRPPRLPRPRPRPYYKPRP | -0.445 |
| RRIRSRPPRLPRPRPRPLQWPRP | -0.0911 |
| RRIRWRPPRLPRPRPRPLECPRP | 0.0173 |
| RRIRQRPPRLPRPRPRPQGPPRP | 0.189 |
| RRIRPRPPRLPRPRPRPAMEPRP | 0.226 |
| RRIRTRPPRLPRPRPRPFHLPRP | -0.0758 |
| RRIRERPPRLPRPRPRPIDQPRP | 0.00338 |
| RRIRKRPPRLPRPRPRPKHSPRP | -0.147 |
| RRIRPRPPRLPRPRPRPYPLPRP | -0.861 |
| RRIRRRPPRLPRPRPRPRHQPRP | 0.277 |
| RRIRCRPPRLPRPRPRPLEEPRP | 0.408 |
| RRIRFRPPRLPRPRPRPHNFPRP | -0.399 |
| RRIRERPPRLPRPRPRPKSIPRP | -0.323 |
| RRIRTRPPRLPRPRPRPDAIPRP | -0.141 |
| RRIRGRPPRLPRPRPRPLWQPRP | 0.766 |
| RRIRVRPPRLPRPRPRPFSKPRP | -0.138 |
